Experimental data: US20070026475A1

Biological target: 4G10 anti-phosphotyrosine monoclonal antibody (Upstate Biotechnology)
Assay: fluorescence polarization competition; competitor of the fluorescent pp60c-src phosphopeptide

- total shift in polarization: < 10 mP
Substance: unphosphorylated peptide (same sequence as the pp60c-src C-terminal phosphoregulatory peptide) (from UniProt P12931 524-536)
